In article PMC5921574 (Molecular Biology of the Cell, 2018):

Target: actin filaments (F-actin) from rabbit skeletal muscle (rabbit, UniProt P68135 1-377)
Assay: co-sedimentation

B1: LEV-11A(E234K), recombinant (natural protein)
chain: MASDAIKKKMQAMKIEKDNALDRADAAEEKVRQITEKLERVEEELRDTQKKMTQTGDDLDKAQEDLSAATSKLEEKEKTVQEAEAEVASLNRRMTLLEEELERAEERLKIATEKLEEATHNVDESERVRKVMENRSLQDEERANTVEAQLKEAQLLAEEADRKYDEVARKLAMVEADLERAEERAEAGENKIVELEEELRVVGNNLKSLEVSEEKALQREDSYEEQIRTVSSRLKKAETRAEFAERSVQKLQKEVDRLEDELVHEKERYKTISEELDSTFQELSGY
- fold decrease in affinity against wild-type LEV-11A: ~3 fold
